Blank lines part the entries; values can stand above or below the molecule they belong to.
Experiments:
[1] = target: N2β1α1C1, recombinant purified (the MxDnaK1 chimera with the MxDnaK2 NBD) (Myxococcus xanthus DK1622); assay: SDS-PAGE of the purified protein (monomer and dimer bands); purified MxDnaKs and chimeras on SDS-PAGE, without DTT treatment; monomer (1×) and dimer (2×) bands
[2] = target: the molecule itself; assay: as above

- oligomer state on SDS-PAGE (subunits per band) [1]: 2
Molecule: N2β1α1C1, recombinant purified (the MxDnaK1 chimera with the MxDnaK2 NBD)

B1: His6-MxDnaK2 (natural protein, Myxococcus xanthus DK1622, UniProt P95334 1-607, looked up)
chain: MGKVIGIDLGTTNSCVAVMEGGEPVVIPNSEGSRTTPSMVGFTDSGERLVGQIAKRQAITNPENTVFAAKRLIGRKFDSPEGKKAIGVSPFKVASSPNGDAWVEIRGKGYSPPEVSAIVLMKMKQTAEDYLGEQVSEAVITVPAYFNDSQRQATKDAGRIAGLSVLRIINEPTAAALAYGLDKVQDGGTERIAVYDLGGGTFDISILELNAGVFEVKSTNGDTFLGGEDFDQRLIDYLAKRFAESNNGLDLRKDRMALQRLKEAAERAKHELSSAPETEVNLPFITADASGPKHLTETVDRATFEALVTDLIDRTIEPCRIALKDAGIPAQQINQVLLVGGMTRMPRVQQKVKEFFGREPHKGINPDEVVAVGAAIQGGVLKGEVKDVLLLDVTPLSLGVETAGGVFTKIIDKNTTIPCKKSQVFSTAVDNQPLVSVHVLQGEREMAADNKTLARFELVGIPPAPRGVPQIEVSFDIDANGIVHVSAKDLGTGKVQQVRVVSNSGLSEAEIQAMISDAQSHASDDKKKKELAELRNNADGLIYTTEKSLEEYASLLSEKDREEIKADLERLKEVLNTSDAAVLKESFQRLEGSAYRIADAIYTGQAS
notes: MxDnaK2 (MXAN_6671) of Myxococcus xanthus DK1622; the gene was amplified from genomic DNA and cloned into pET28a; His6-MxDnaK2 printed as 65.3 kDa; also called MxDnaK2, recombinant purified; source: E. coli BL21 (DE3), purified (Ni-NTA); not shown: His6, N-terminal, kept
- stoichiometry N [2]: 2

From PMC11019930, “DnaK duplication and specialization in bacteria correlates with increased proteome complexity” (mSystems, 2024)
